In patent publication US20260001928A1 (CORTERIA PHARMACEUTICALS, priority 2022, published 2026):
*1 amine or outer side, *2 acyl side, *3 side chain or, on linkers, in order; H or OH if unused. Side-chain parts run from the residue outwards. [ ]: non-standard residue; d: D form. The star is where a group is joined. C20 diacid = O=C(O)CCCCCCCCCCCCCCCCCCC(=O)*; C18 diacid = O=C(O)CCCCCCCCCCCCCCCCC(=O)*; γGlu = O=C(O)[C@H](CCC(=O)[*:2])N[*:1]; Myristoyl = CCCCCCCCCCCCCC(=O)*; Lauroyl = CCCCCCCCCCCC(=O)*; Decanoyl = CCCCCCCCCC(=O)*; Api = NC1(C(=O)O)CCNCC1; AEEA = NCCOCCOCC(=O)O; Aib = CC(C)(N)C(=O)O

T1: CRF1R receptor (UniProt P34998 24-415, limits assumed)
T1 sequence (looked up): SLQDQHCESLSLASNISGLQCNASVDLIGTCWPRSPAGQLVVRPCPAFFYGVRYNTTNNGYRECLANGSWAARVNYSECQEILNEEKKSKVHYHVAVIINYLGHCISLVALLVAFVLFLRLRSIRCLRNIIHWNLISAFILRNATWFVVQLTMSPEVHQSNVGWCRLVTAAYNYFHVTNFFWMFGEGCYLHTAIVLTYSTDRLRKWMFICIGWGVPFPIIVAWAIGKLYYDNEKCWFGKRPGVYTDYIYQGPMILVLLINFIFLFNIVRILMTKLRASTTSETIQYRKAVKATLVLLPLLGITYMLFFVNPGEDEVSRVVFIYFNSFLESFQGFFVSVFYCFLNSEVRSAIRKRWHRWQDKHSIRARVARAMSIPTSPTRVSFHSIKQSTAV

B1: SEQ ID NO 226 (peptide)
peptide: Ac-IVLSLD[dV]PIGLK([γGlu-C20 diacid])KILLEQEKQKKQREQAETN[Aib]QILAQV-NH2
SMILES: CC[C@H](C)[C@H](NC(C)=O)C(=O)N[C@H](C(=O)N[C@@H](CC(C)C)C(=O)N[C@@H](CO)C(=O)N[C@@H](CC(C)C)C(=O)N[C@@H](CC(=O)O)C(=O)N[C@@H](C(=O)N1CCC[C@H]1C(=O)N[C@H](C(=O)NCC(=O)N[C@@H](CC(C)C)C(=O)N[C@@H](CCCCNC(=O)CC[C@H](NC(=O)CCCCCCCCCCCCCCCCCCC(=O)O)C(=O)O)C(=O)N[C@@H](CCCCN)C(=O)N[C@H](C(=O)N[C@@H](CC(C)C)C(=O)N[C@@H](CC(C)C)C(=O)N[C@@H](CCC(=O)O)C(=O)N[C@@H](CCC(N)=O)C(=O)N[C@@H](CCC(=O)O)C(=O)N[C@@H](CCCCN)C(=O)N[C@@H](CCC(N)=O)C(=O)N[C@@H](CCCCN)C(=O)N[C@@H](CCCCN)C(=O)N[C@@H](CCC(N)=O)C(=O)N[C@@H](CCCNC(=N)N)C(=O)N[C@@H](CCC(=O)O)C(=O)N[C@@H](CCC(N)=O)C(=O)N[C@@H](C)C(=O)N[C@@H](CCC(=O)O)C(=O)N[C@H](C(=O)N[C@@H](CC(N)=O)C(=O)NC(C)(C)C(=O)N[C@@H](CCC(N)=O)C(=O)N[C@H](C(=O)N[C@@H](CC(C)C)C(=O)N[C@@H](C)C(=O)N[C@@H](CCC(N)=O)C(=O)N[C@H](C(N)=O)C(C)C)[C@@H](C)CC)[C@@H](C)O)[C@@H](C)CC)[C@@H](C)CC)C(C)C)C(C)C
B2: SEQ ID NO 92 (peptide)
peptide: Ac-VLSLD[dV]PIKLK([AEEA-AEEA-γGlu-C18 diacid])KILLEQEKQKKQREQAETNKQILAQV-NH2
SMILES: CC[C@H](C)[C@H](NC(=O)[C@H](CCC(N)=O)NC(=O)[C@H](CCCCN)NC(=O)[C@H](CC(N)=O)NC(=O)[C@@H](NC(=O)[C@H](CCC(=O)O)NC(=O)[C@H](C)NC(=O)[C@H](CCC(N)=O)NC(=O)[C@H](CCC(=O)O)NC(=O)[C@H](CCCNC(=N)N)NC(=O)[C@H](CCC(N)=O)NC(=O)[C@H](CCCCN)NC(=O)[C@H](CCCCN)NC(=O)[C@H](CCC(N)=O)NC(=O)[C@H](CCCCN)NC(=O)[C@H](CCC(=O)O)NC(=O)[C@H](CCC(N)=O)NC(=O)[C@H](CCC(=O)O)NC(=O)[C@H](CC(C)C)NC(=O)[C@H](CC(C)C)NC(=O)[C@@H](NC(=O)[C@H](CCCCN)NC(=O)[C@H](CCCCNC(=O)COCCOCCNC(=O)COCCOCCNC(=O)CC[C@H](NC(=O)CCCCCCCCCCCCCCCCC(=O)O)C(=O)O)NC(=O)[C@H](CC(C)C)NC(=O)[C@H](CCCCN)NC(=O)[C@@H](NC(=O)[C@@H]1CCCN1C(=O)[C@H](NC(=O)[C@H](CC(=O)O)NC(=O)[C@H](CC(C)C)NC(=O)[C@H](CO)NC(=O)[C@H](CC(C)C)NC(=O)[C@@H](NC(C)=O)C(C)C)C(C)C)[C@@H](C)CC)[C@@H](C)CC)[C@@H](C)O)C(=O)N[C@@H](CC(C)C)C(=O)N[C@@H](C)C(=O)N[C@@H](CCC(N)=O)C(=O)N[C@H](C(N)=O)C(C)C
B3: SEQ ID NO 224 (peptide)
peptide: Lauroyl-VLSLD[dV]PIKLK([γGlu-C20 diacid])KILLEQEKQKKQREQAETN[Aib]QILAQV-NH2
SMILES: CCCCCCCCCCCC(=O)N[C@H](C(=O)N[C@@H](CC(C)C)C(=O)N[C@@H](CO)C(=O)N[C@@H](CC(C)C)C(=O)N[C@@H](CC(=O)O)C(=O)N[C@@H](C(=O)N1CCC[C@H]1C(=O)N[C@H](C(=O)N[C@@H](CCCCN)C(=O)N[C@@H](CC(C)C)C(=O)N[C@@H](CCCCNC(=O)CC[C@H](NC(=O)CCCCCCCCCCCCCCCCCCC(=O)O)C(=O)O)C(=O)N[C@@H](CCCCN)C(=O)N[C@H](C(=O)N[C@@H](CC(C)C)C(=O)N[C@@H](CC(C)C)C(=O)N[C@@H](CCC(=O)O)C(=O)N[C@@H](CCC(N)=O)C(=O)N[C@@H](CCC(=O)O)C(=O)N[C@@H](CCCCN)C(=O)N[C@@H](CCC(N)=O)C(=O)N[C@@H](CCCCN)C(=O)N[C@@H](CCCCN)C(=O)N[C@@H](CCC(N)=O)C(=O)N[C@@H](CCCNC(=N)N)C(=O)N[C@@H](CCC(=O)O)C(=O)N[C@@H](CCC(N)=O)C(=O)N[C@@H](C)C(=O)N[C@@H](CCC(=O)O)C(=O)N[C@H](C(=O)N[C@@H](CC(N)=O)C(=O)NC(C)(C)C(=O)N[C@@H](CCC(N)=O)C(=O)N[C@H](C(=O)N[C@@H](CC(C)C)C(=O)N[C@@H](C)C(=O)N[C@@H](CCC(N)=O)C(=O)N[C@H](C(N)=O)C(C)C)[C@@H](C)CC)[C@@H](C)O)[C@@H](C)CC)[C@@H](C)CC)C(C)C)C(C)C
B4: SEQ ID NO 225 (peptide)
peptide: Myristoyl-VLSLD[dV]PIKLK([γGlu-C20 diacid])KILLEQEKQKKQREQAETN[Aib]QILAQV-NH2
SMILES: CCCCCCCCCCCCCC(=O)N[C@H](C(=O)N[C@@H](CC(C)C)C(=O)N[C@@H](CO)C(=O)N[C@@H](CC(C)C)C(=O)N[C@@H](CC(=O)O)C(=O)N[C@@H](C(=O)N1CCC[C@H]1C(=O)N[C@H](C(=O)N[C@@H](CCCCN)C(=O)N[C@@H](CC(C)C)C(=O)N[C@@H](CCCCNC(=O)CC[C@H](NC(=O)CCCCCCCCCCCCCCCCCCC(=O)O)C(=O)O)C(=O)N[C@@H](CCCCN)C(=O)N[C@H](C(=O)N[C@@H](CC(C)C)C(=O)N[C@@H](CC(C)C)C(=O)N[C@@H](CCC(=O)O)C(=O)N[C@@H](CCC(N)=O)C(=O)N[C@@H](CCC(=O)O)C(=O)N[C@@H](CCCCN)C(=O)N[C@@H](CCC(N)=O)C(=O)N[C@@H](CCCCN)C(=O)N[C@@H](CCCCN)C(=O)N[C@@H](CCC(N)=O)C(=O)N[C@@H](CCCNC(=N)N)C(=O)N[C@@H](CCC(=O)O)C(=O)N[C@@H](CCC(N)=O)C(=O)N[C@@H](C)C(=O)N[C@@H](CCC(=O)O)C(=O)N[C@H](C(=O)N[C@@H](CC(N)=O)C(=O)NC(C)(C)C(=O)N[C@@H](CCC(N)=O)C(=O)N[C@H](C(=O)N[C@@H](CC(C)C)C(=O)N[C@@H](C)C(=O)N[C@@H](CCC(N)=O)C(=O)N[C@H](C(N)=O)C(C)C)[C@@H](C)CC)[C@@H](C)O)[C@@H](C)CC)[C@@H](C)CC)C(C)C)C(C)C
B5: SEQ ID NO 227 (peptide)
peptide: Ac-IVLSLD[dV]PIGLK([γGlu-C20 diacid])KILLEQEKQKKQREQAETN[Api]QILAQV-NH2
SMILES: CC[C@H](C)[C@H](NC(C)=O)C(=O)N[C@H](C(=O)N[C@@H](CC(C)C)C(=O)N[C@@H](CO)C(=O)N[C@@H](CC(C)C)C(=O)N[C@@H](CC(=O)O)C(=O)N[C@@H](C(=O)N1CCC[C@H]1C(=O)N[C@H](C(=O)NCC(=O)N[C@@H](CC(C)C)C(=O)N[C@@H](CCCCNC(=O)CC[C@H](NC(=O)CCCCCCCCCCCCCCCCCCC(=O)O)C(=O)O)C(=O)N[C@@H](CCCCN)C(=O)N[C@H](C(=O)N[C@@H](CC(C)C)C(=O)N[C@@H](CC(C)C)C(=O)N[C@@H](CCC(=O)O)C(=O)N[C@@H](CCC(N)=O)C(=O)N[C@@H](CCC(=O)O)C(=O)N[C@@H](CCCCN)C(=O)N[C@@H](CCC(N)=O)C(=O)N[C@@H](CCCCN)C(=O)N[C@@H](CCCCN)C(=O)N[C@@H](CCC(N)=O)C(=O)N[C@@H](CCCNC(=N)N)C(=O)N[C@@H](CCC(=O)O)C(=O)N[C@@H](CCC(N)=O)C(=O)N[C@@H](C)C(=O)N[C@@H](CCC(=O)O)C(=O)N[C@H](C(=O)N[C@@H](CC(N)=O)C(=O)NC1(C(=O)N[C@@H](CCC(N)=O)C(=O)N[C@H](C(=O)N[C@@H](CC(C)C)C(=O)N[C@@H](C)C(=O)N[C@@H](CCC(N)=O)C(=O)N[C@H](C(N)=O)C(C)C)[C@@H](C)CC)CCNCC1)[C@@H](C)O)[C@@H](C)CC)[C@@H](C)CC)C(C)C)C(C)C
B6: SEQ ID NO 223 (peptide)
peptide: Decanoyl-VLSLD[dV]PIKLK([γGlu-C20 diacid])KILLEQEKQKKQREQAETN[Aib]QILAQV-NH2
SMILES: CCCCCCCCCC(=O)N[C@H](C(=O)N[C@@H](CC(C)C)C(=O)N[C@@H](CO)C(=O)N[C@@H](CC(C)C)C(=O)N[C@@H](CC(=O)O)C(=O)N[C@@H](C(=O)N1CCC[C@H]1C(=O)N[C@H](C(=O)N[C@@H](CCCCN)C(=O)N[C@@H](CC(C)C)C(=O)N[C@@H](CCCCNC(=O)CC[C@H](NC(=O)CCCCCCCCCCCCCCCCCCC(=O)O)C(=O)O)C(=O)N[C@@H](CCCCN)C(=O)N[C@H](C(=O)N[C@@H](CC(C)C)C(=O)N[C@@H](CC(C)C)C(=O)N[C@@H](CCC(=O)O)C(=O)N[C@@H](CCC(N)=O)C(=O)N[C@@H](CCC(=O)O)C(=O)N[C@@H](CCCCN)C(=O)N[C@@H](CCC(N)=O)C(=O)N[C@@H](CCCCN)C(=O)N[C@@H](CCCCN)C(=O)N[C@@H](CCC(N)=O)C(=O)N[C@@H](CCCNC(=N)N)C(=O)N[C@@H](CCC(=O)O)C(=O)N[C@@H](CCC(N)=O)C(=O)N[C@@H](C)C(=O)N[C@@H](CCC(=O)O)C(=O)N[C@H](C(=O)N[C@@H](CC(N)=O)C(=O)NC(C)(C)C(=O)N[C@@H](CCC(N)=O)C(=O)N[C@H](C(=O)N[C@@H](CC(C)C)C(=O)N[C@@H](C)C(=O)N[C@@H](CCC(N)=O)C(=O)N[C@H](C(N)=O)C(C)C)[C@@H](C)CC)[C@@H](C)O)[C@@H](C)CC)[C@@H](C)CC)C(C)C)C(C)C

Molecular target: human corticotropin-releasing factor 2a (CRF2a receptor) (human), Q13324
Test: cell-based or functional assay

Sequence of human corticotropin-releasing factor 2a (CRF2a receptor) (human), Q13324 (Q13324 20-411): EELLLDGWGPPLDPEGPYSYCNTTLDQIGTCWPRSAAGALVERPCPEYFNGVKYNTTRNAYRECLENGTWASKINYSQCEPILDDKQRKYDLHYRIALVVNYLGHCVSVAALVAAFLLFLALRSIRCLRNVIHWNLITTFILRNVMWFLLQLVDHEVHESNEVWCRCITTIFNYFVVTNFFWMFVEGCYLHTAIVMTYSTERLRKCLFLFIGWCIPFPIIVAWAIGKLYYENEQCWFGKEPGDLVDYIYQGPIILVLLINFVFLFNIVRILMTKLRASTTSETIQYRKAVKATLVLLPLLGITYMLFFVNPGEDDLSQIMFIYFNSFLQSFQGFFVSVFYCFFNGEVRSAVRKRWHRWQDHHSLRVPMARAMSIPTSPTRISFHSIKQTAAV

| EC50 [nM] (cAMP) | Binder |
| --- | --- |
| 0.18 nM | B1 |
| 2.3 nM | B2 |
| 0.07 nM | B3 |
| 0.09 nM | B4 |
| 0.2 nM | B5 |
| 0.08 nM | B6 |

Molecular target: T1, CRF1R receptor
Test: cell-based or functional assay

| EC50 | Emax (% I) | Binder |
| --- | --- | --- |
| 42.1 nM | 82% | B1 |
|  | 5% | B2 |
| 39.5 nM | 66% | B3 |
| 73.4 nM | 70% | B4 |
| 1.74 nM | 97% | B5 |
| 152 nM | 58% | B6 |
